Consider 23 molecules from patent US20170137818, “APTAMER INHIBITING BIOLOGICAL ACTIVITY OF AUTOTAXIN BY BINDING WITH AUTOTAXIN, AND USE THEREOF” (RIBOMIC INC., published 2017).

B1: 12(48) (ssDNA)
DNA: CCTGGACGGAACCAGAATACTTTTGGTCTCCAGG
modifications: 2'-OMe C7,G9,A14,G15,A19,C20,A32,G33,G34; 5' 40 kDa PEG (GL2-400GS2) via ssH linker, 3' idT
B2: 12(49) (ssDNA)
DNA: B1 DNA
modifications: 2'-OMe C1,G5,C7,G9,C12,C13,A14,G15,A19,C20,A32,G33,G34; 5' 40 kDa PEG via ssH linker, 3' idT
B3: 12(61) (ssDNA)
DNA: B1 DNA
modifications: 2'-OMe C7,G9,A14,G15,A19,C20,A32,G33,G34; P-methyl C12 (between C12 and C13); 5' idT, 3' idT
B4: 12(131) (ssDNA)
DNA: B1 DNA
modifications: 2'-OMe C7,G9,A14,G15,A19,C20,A32,G33,G34; P-methyl G8; 5' 40 kDa PEG via ssH linker, 3' idT
B5: 12(139) (ssDNA)
DNA: B1 DNA
modifications: 2'-OMe C7,G9,A14,G15,A19,C20,A32,G33,G34; P-methyl C1,G5,G8,C12,A16,A19,T21,T23,C28,C30,C31; 5' idT, 3' idT
B6: 12(132) (ssDNA)
DNA: B1 DNA
modifications: 2'-OMe C7,G9,A14,G15,A19,C20,A32,G33,G34; P-methyl C1,G5,G8,C12,A16,T21,T23,C28,C30,C31; 5' idT, 3' idT
B7: 12(133) (ssDNA)
DNA: B1 DNA
modifications: 2'-OMe C7,G9,A14,G15,A19,C20,A32,G33,G34; P-methyl G8,C12,C28; 5' 40 kDa PEG via ssH linker, 3' idT
B8: 12(144) (ssDNA)
DNA: B1 DNA
modifications: 2'-OMe C7,G9,A14,G15,A19,C20,A32,G33,G34; P-methyl C1,G5,G8,C12,A16,T21,T23,C28,C30,C31,G34; 5' 40 kDa PEG via ssH linker, 3' idT
B9: 12(145) (ssDNA)
DNA: B1 DNA
modifications: 2'-OMe C7,G9,A14,G15,A19,C20,A32,G33,G34; P-methyl C1,G5,G8,C12,A16,A19,T21,T23,C28,C30,C31; 5' 40 kDa PEG via ssH linker, 3' idT
B10: 12(147) (ssDNA)
DNA: B1 DNA
modifications: 2'-OMe C7,G9,A14,G15,A19,C20,A32,G33,G34; P-methyl C1,G5,G8,C12,A14,A16,A19,T21,T23,C28,C30,C31,G34; 5' 40 kDa PEG via ssH linker, 3' idT
B11: 12(135) (ssDNA)
DNA: B1 DNA
modifications: 2'-OMe C7,G9,A14,G15,A19,C20,A32,G33,G34; P-methyl C1,G5,G8,C12,A16,T21,T23,C28,C30,C31,G34; 5' idT, 3' idT
B12: 12(141) (ssDNA)
DNA: B1 DNA
modifications: 2'-OMe C7,G9,A14,G15,A19,C20,A32,G33,G34; P-methyl C1,G5,G8,C12,A14,A16,T21,T23,C28,C30,C31; 5' idT, 3' idT
B13: 12(152) (ssDNA)
DNA: B1 DNA
modifications: 2'-OMe C7,G9,A14,G15,A19,C20,A32,G33,G34; P-butoxy between C12 and C13; 5' idT, 3' idT

One data set deals with T1, autotaxin (ENPP2/NPP2) (Homo sapiens, UniProt Q13822 Q13822:36-863). In words: inhibition; NPP2 assay, 37 C.
Settings: not given
In turn, CGCTGGGGTACGCTCGGAACCGAGGCAATTGGTCAGCG (ssDNA) [SEQ 26 aptamer] registered an IC50 of 440 nM.

The next data set deals with FGF2 (UniProt P09038 P09038:135-288). The experiment in a line: SPR; specificity control; FGF2 immobilized, aptamer 0.3 uM; solution A. The note with it: tags: PeproTech. (In general: SPR reads the build-up and loss of mass on a sensor chip optically.)
Sequence of FGF2 (P09038 135-288, one chain of several): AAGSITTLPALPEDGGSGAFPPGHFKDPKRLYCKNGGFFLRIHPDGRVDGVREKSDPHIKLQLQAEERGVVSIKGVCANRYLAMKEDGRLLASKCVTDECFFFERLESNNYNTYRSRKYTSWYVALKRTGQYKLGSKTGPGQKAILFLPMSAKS
Regarding B1, the binding result was “no binding”.

The next data set deals with T1, autotaxin (ENPP2/NPP2). In words: inhibition; NPP2 assay, pNP-TMP, 37 C.
Settings: not given
For CCTGGACGGAACCAGAATACTTTTGGTCTCCAGG (ssDNA, 2'-OMe C7,G9,A14,G15,A19,C20,A32,G33,G34; 3' idT) [12(148)], half-maximal inhibition (IC50) was put at 6.8 nM.

The target of another data set is T1, autotaxin (ENPP2/NPP2). The experiment in a line: inhibition; NPP2 assay, 37 C; no SPR binding.
Settings: not given
CCTGGACGGAACCAATACTTGGTCTCCAGG (ssDNA) [SEQ 15 aptamer] yielded an IC50 of 990 nM.

The target in another data set is T2, autotaxin (endogenous, human pooled serum) (Homo sapiens, UniProt Q13822 Q13822:36-863). The experiment in a line: inhibition; LPA production in serum, 1.0 uM.
Settings: not given
As to CCTGGACGGAACCAGAATACTTTTGGTCTCCAGG (ssDNA, 2'-OMe C1,G5,C7,G9,C12,C13,A14,G15,A19,C20,A32,G33,G34; 5' idT, 3' idT) [12(42)], the activity turned out to be 68 % inhibition.

For B1, the activity worked out at 92 % inhibition.

As for B2, the activity stood at 58 % inhibition.

A further data set deals with T2, autotaxin (endogenous, human pooled …). The experiment in a line: inhibition; LPA production in serum, 0.10 uM.
Settings: not given
B3 came in with an activity of 91 % inhibition.

Molecule CCTGGACGGAACCAGAATACTTTTGGTCTCCAGG (ssDNA, 2'-OMe C7,G9,A14,G15,A19,C20,A32,G33,G34; P-methyl T27; 5' idT, 3' idT) [12(97)] yielded an activity of 7 % inhibition.

Turning to CCTGGACGGAACCAGAATACTTTTGGTCTCCAGG (ssDNA, 2'-OMe C7,G9,A14,G15,A19,C20,A32,G33,G34; PS between G9 and A10; 5' idT, 3' idT) [12(105)], the activity came to 25 % inhibition.

In the case of B4, the activity was found to be 91 % inhibition.

Consider CCTGGACGGAACCAGAATACTTTTGGTCTCCAGG (ssDNA, 2'-OMe C7,G9,A14,G15,A19,C20,A32,G33,G34; P-methyl G8; 5' idT, 3' idT) [12(92)], for which the activity was found to be 91 % inhibition.

Regarding CCTGGACGGAACCAGAATACTTTTGGTCTCCAGG (ssDNA, 2'-OMe C7,G9,A14,G15,A19,C20,A32,G33,G34; P-methyl G8,C12,C28; 5' idT, 3' idT) [12(119)], the activity turned out to be 97 % inhibition.

Consider CCTGGACGGAACCAGAATACTTTTGGTCTCCAGG (ssDNA, 2'-OMe C7,G9,A14,G15,A19,C20,A32,G33,G34; P-methyl G8,C12; 5' idT, 3' idT) [12(118)], for which the activity amounted to 98 % inhibition.

CCTGGACGGAACCAGAATACTTTTGGTCTCCAGG (ssDNA, 2'-OMe C7,G9,A14,G15,A19,C20,A32,G33,G34; PS between G8 and G9; 5' idT, 3' idT) [12(77)] yielded an activity of 88 % inhibition.

The target is the same in a further data set. In words: inhibition; LPA production in serum, 0.025 uM.
Settings: not given
As for B5, the activity came to 71 % inhibition.

On to B6, for which the activity was determined as 59 % inhibition.

As for B7, the activity was 90 % inhibition.

The molecule B8 gave an activity of 87 % inhibition.

B9: the activity worked out at 82 % inhibition.

Consider B10, for which the activity came out at 70 % inhibition.

In the case of B11, the activity worked out at 50 % inhibition.

B12 came in with an activity of 56 % inhibition.

The next data set has as its target T1, autotaxin (ENPP2/NPP2). In words: inhibition; NPP2 assay per text (column headed LysoPLD).
Settings: not given
As for B13, inhibition was half-maximal at 0.23 nM (IC50).

Another data set has as its target T1, autotaxin (ENPP2/NPP2). In words: inhibition; LysoPLD assay, 2 mM 14:0 LPC, 2.1 nM autotaxin, 37 C.
Settings: not given
Molecule B8 registered a 50% inhibitory concentration (IC50) of 1.6 nM.

The target in the next data set is T1, autotaxin (ENPP2/NPP2). In words: SPR; not more than 10% of SEQ 12 signal; aptamer 0.3 uM; solution A.
Settings: not given
As to CCTGGACGGAACCAATACTTGGTCTCCAGG (ssDNA) [SEQ 15 aptamer], the binding result is given as “no binding”.

One may read the IC50 as the concentration needed to halve the response being measured. A higher IC50 goes with weaker potency.
